This is an account of results in patent publication US12258605B2, “Alkane oxidation by modified hydroxylases” (The California Institute of Technology, priority 2005, dated 2025).

What all share (type): biochemical
Series [1] can be described thus: Kinetic constants for n-alkanes: octane. Here is the method:
(§1) Rate measurements. Initial rates of product formation were determined at 25° C. in 100 mM KPi pH 8.0 buffer using purified protein (100 nM) and a substrate concentration of 1.6 mM. In a 5 mL-vial, 20 μL of alkane solution (in ethanol) were dissolved in 400 μL KPi buffer, to which 500 μL enzyme solution at 100-200 nM was added. Reaction was initiated by adding 100 μL of 5 mM NADPH solution, followed by stirring at 300 rpm for 1 minute, and quenched by adding 200 μL chloroform and stirring at 800 rpm for 10 sec. Solutions were transferred to an Eppendorf tube, to which internal standard (10 μL 25 mM 1-bromohexane in ethanol) was added. Tubes were vortexed for 10 sec and centrifuged for 30 sec at 10,000 g. Organic phase was removed and analyzed by GC. For propane, reactions were carried out in a 5 mL-scale using 100-400 nM purified enzyme, propane-saturated buffer (propane concentration≈1.6 mM) and a final NADPH concentration of 500 μM. Reactions were stopped by addition of 200 μL H2SO4 conc. and analyzed by derivatization to alkyl nitrites followed by GC-ECD analysis as described below.
(§2) Products from alkane reactions were identified and quantified by gas chromatography using authentic standards and calibration curves with internal standards. For the reactions with alkanes from pentane to decane, GC analyses were carried out using a Shimadzu GC-17A gas chromatograph, Agilent HP5 column (30 m×0.32 mm×0.1 μm film), 1 μL injection, FID detector, and the following separation program: 250° C. inlet, 250° C. detector, 50° C. oven for 3 min, 5° C./min gradient to 100° C., 25° C./min gradient to 230° C., and 230° C. for 3 min. For butane and propane (TTN) reactions, GC analyses were carried out using a Hewlett-Packard 5890 Series II Plus gas chromatograph, Supelco SPB-1 column (60 m×0.52 mm×0.5 μm film), 0.5 μL injection, FID detector, and the following separation program: 250° C. inlet, 275° C. detector, 80° C. oven for 2 min, 10° C./min gradient to 110° C., 25° C./min gradient to 275° C., and 275° C. for 2.5 min. For ethane and propane (rate) reactions, analysis of reaction mixtures was carried out by derivatization to alkyl nitrites followed by GC-ECD analysis. For laurate, reaction product analysis was carried out by derivatization with N-methyl-N-trimethylsilylheptafluorobutyramide followed by extraction with hexane. Organic solutions were analyzed by FID-GC.
To further investigate the evolution of substrate specificity, kinetic constants for the C5 to C8 alkanes were determined from Michaelis-Menten plots (Table 19). The preference of 35E11 and its evolutionary predecessors for medium-chain alkanes is indicated by their high C8/C5 specificities ((kcat/Km)8/(kcat/Km)5˜100), where Km appears to be the major contributing factor. C8/C5 specificity decreases to ˜5 in the immediate precursors of P450PMO and then switches altogether to the smaller alkane, becoming 0.4 in P450PMO. In P450PMO, catalytic efficiency is highest on propane and decreases along the alkane series, driven by decreasing kcat.

Series [2] can be described thus: Reactions on alkanes, total turnovers (Table 18): propane. The following applies: propane (3 C atoms); for % rel. act.: TTN normalized to the highest value of the variant's series; for TTN: total turnovers, standardized reaction conditions. Here is the method: Reactions on alkanes. Reactions with alkanes from pentane to decane were carried out at 3 mL-scale using 100 mM KPi pH 8.0 buffer containing 2% ethanol (to allow alkane solubilization) and purified protein. 2.5 mL KPi buffer were added with 60 μL of 90 mM alkane solution in ethanol (final conc.=1.8 mM), 150 μL enzyme solution at 1 μM (final conc.=50 nM), and 300 μL NADPH regeneration solution (100 units/mL isocitrate dehydrogenase, 70 mg/mL isocitrate, 1.5 mg/ml NADP^+). Vials were sealed and stirred for 24 hours at 4° C. 1 mL-aliquot of the reaction was removed, added with 10 μl internal standard (25 mM 1-bromohexane in ethanol), and extracted with 200 μl chloroform (30 sec vortexing, 1 min centrifugation at 10000 g). The organic phase was removed and analyzed by gas chromatography. Reactions with ethane, propane, and butane were carried out as described for longer alkanes with the only difference that alkane-saturated KPi buffer was used. Propane reactions with variants from HL5 and L9 libraries were performed on 1 mL-scale reaction using 20 nM enzyme to reduce oxygen limitation. Propane and butane reactions were analyzed by direct injection of reaction solution on the GC using 1-pentanol as internal standard. Ethane reaction products were functionalized (see below) and analyzed by GC using 1-butanol as internal standard. All measurements were performed in triplicate.
as §2
Because 35E11 was only marginally stable, the engineering strategy described herein (see below) involved an initial stabilization step followed by iterative rounds of mutagenesis and screening. Random, saturation and site-directed mutagenesis methods were used to create libraries of mutants (FIG. 35), which were screened for activity on a propane surrogate, dimethyl ether. Positives were confirmed in a re-screen and purified for further analysis. Reactions with purified enzymes were carried out in sealed vials in the presence of propane-saturated buffer and a cofactor regeneration system. Improvement in propane total turnover number-moles of propanol produced per mole of enzyme—was a selection criterion for taking a mutant to the next round.
TTNs for each variant-substrate pair were determined using standardized reaction conditions (identical enzyme and substrate concentration, incubation time, cofactor regeneration system) (Table 18). TTN values were used to assess performance because TTN is a cumulative measure of both catalytic and coupling efficiency and because mutants were selected based on improvement in this property. […]

The next series can be described thus: Reactions on laurate. As to conditions: laurate 2 mM, 5 hours, room temperature. Here is the method:
Reactions on laurate. P450PMO activity on laurate was tested mixing the substrate (2 mM) with purified protein (up to 0.5 μM) in 100 mM KPi pH 8.0 buffer, and adding NADPH to final concentration of 1 mM. Reaction mixtures were incubated for 5 hours at room temperature under gentle stirring. Analysis of the hydroxylated products was carried out by derivatization with N-methyl-N-trimethylsilylheptafluorobutyramide (Aldrich) followed by GC analysis according to a published procedure. A control experiment was carried out using wild-type P450BM3.
Products from alkane reactions were identified and quantified by gas chromatography using authentic standards and calibration curves with internal standards. For the reactions with alkanes from pentane to decane, GC analyses were carried out using a Shimadzu GC-17A gas chromatograph, Agilent HP5 column (30 m×0.32 mm×0.1 μm film), 1 μL injection, FID detector, and the following separation program: 250° C. inlet, 250° C. detector, 50° C. oven for 3 min, 5° C./min gradient to 100° C., 25° C./min gradient to 230° C., and 230° C. for 3 min. […] Organic solutions were analyzed by FID-GC. […]

Series [3] in a line: Kinetic constants for n-alkanes: pentane. The following applies: N.a. = not active. Here is the method:
as §1, §2
(§3) To further investigate the evolution of substrate specificity, kinetic constants for the C5 to C8 alkanes were determined from Michaelis-Menten plots (Table 19). The preference of 35E11 and its evolutionary predecessors for medium-chain alkanes is indicated by their high C8/C5 specificities ((kcat/Km)8/(kcat/Km)5˜100), where Km appears to be the major contributing factor. […]

A short description of series [4]: Kinetic constants for n-alkanes: hexane. The following applies: N.a. = not active. The protocol:
as §1, §2, §3

B1: Wild-type BM-3: wild-type cytochrome P450 BM-3 from Bacillus megaterium, SEQ ID NO:1 (protein, listed as Bacillus megaterium)
chain: TIKEMPQPKTFGELKNLPLLNTDKPVQALMKIADELGEIFKFEAPGRVTRYLSSQRLIKEACDESRFDKNLSQALKFVRDFAGDGLFTSWTHEKNWKKAHNILLPSFSQQAMKGYHAMMVDIAVQLVQKWERLNADEHIEVPEDMTRLTLDTIGLCGFNYRFNSFYRDQPHPFITSMVRALDEAMNKLQRANPDDPAYDENKRQFQEDIKVMNDLVDKIIADRKASGEQSDDLLTHMLNGKDPETGEPLDDENIRYQIITFLIAGHETTSGLLSFALYFLVKNPHVLQKAAEEAARVLVDPVPSYKQVKQLKYVGMVLNEALRLWPTAPAFSLYAKEDTVLGGEYPLEKGDELMVLIPQLHRDKTIWGDDVEEFRPERFENPSAIPQHAFKPFGNGQRACIGQQFALHEATLVLGMMLKHFDFEDHTNYELDIKETLTLKPEGFVVKAKSKKIPLGGIPSPSTEQSAKKVRKKAENAHNTPLLVLYGSNMGTAEGTARDLADIAMSKGFAPQVATLDSHAGNLPREGAVLIVTASYNGHPPDNAKQFVDWLDQASADEVKGVRYSVFGCGDKNWATTYQKVPAFIDETLAAKGAENIADRGEADASDDFEGTYEEWREHMWSDVAAYFNLDIENSEDNKSTLSLQFVDSAADMPLAKMHGAFSTNVVASKELQQPGSARSTRHLEIELPKEASYQEGDHLGVIPRNYEGIVNRVTARFGLDASQQIRLEAEEEKLAHLPLAKTVSVEELLQYVELQDPVTRTQLRAMAAKTVCPPHKVELEALLEKQAYKEQVLAKRLTMLELLEKYPACEMKFSEFIALLPSIRPRYYSISSSPRVDEKQASITVSVVSGEAWSGYGEYKGIASNYLAELQEGDTITCFISTPQSEFTLPKDPETPLIMVGPGTGVAPFRGFVQARKQLKEQGQSLGEAHLYFGCRSPHEDYLYQEELENAQSEGIITLHTAFSRMPNQPKTYVQHVMEQDGKKLIELLDQGAHFYICGDGSQMAPAVEATLMKSYADVHQVSEADARLWLQQLEEKGRYAKDVWAG
Turning to B1, in series [1], the Km was greater than 5000 µM and the kcat was less than 0.083 s⁻¹. In series [2], the “% rel. act.” value is recorded as 0.0% and the TTN was determined as 0. In addition, the “hydroxylation products of laurate” value in the series “Reactions on laurate” is reported as “multiple hydroxylation products were detected”.

B2: 35-E11: P450 BM-3 variant, SEQ ID NO:7: 53-5H substitutions plus E464G and I710T (protein)
chain: TIKEMPQPKTFGELKNLPLLNTDKPVQALMKIADELGEIFKFEAPGCVTRYLSSQRLIKEACDESRFDKNLSQALKFFRDFSGDGLFTSWTHEINWKKAHNILLPSFSQQAMKGYHAMMVDIAVQLVQKWERLNADEHIEVSEDMTRLTLDTIGLCGFNYRFNSFYRDQPHPFIISMVRALDEVMNKLQRANPDDPAYDENKRQCQEDIKVMNDLVDKIIADRKARGEQSDDLLTQMLNGKDPETGEPLDDGNISYQIITFLIAGHETTSGLLSFALYFLVKNPHVLQKVVEEAARVLVDPVPSYKQVKQLKYVGMVLNEALRLWPTFPAFSLYAKEDTVLGGEYPLEKGDEVMVLIPQLHRDKTIWGDDVEEFRPERFENPSAIPQHAFKPFGNGQRACIGQQFALHEATLVLGMMLKHFDFEDHTNYELDIKETLTLKPEGFVVKAKSKKIPLGGIPSPSTGQSAKKVRKKAENAHNTPLLVLYGSNMGTAEGTARDLADIAMSKGFAPQVATLDSHAGNLPREGAVLIVTASYNGHPPDNAKQFVDWLDQASADEVKGVRYSVFGCGDKNWATTYQKVPAFIDETLAAKGAENIADRGEADASDDFEGTYEEWREHMWSDVAAYFNLDIENSEDNKSTLSLQFVDSAADMPLAKMHGAFSTNVVASKELQQPGSARSTRHLEIELPKEASYQEGDHLGVIPRNYEGTVNRVTARFGLDASQQIRLEAEEEKLAHLPLAKTVSVEELLQYVELQDPVTRTQLRAMAAKTVCPPHKVELEALLEKQAYKEQVLAKRLTMLELLEKYPACEMKFSEFIALLPSIRPRYYSISSSPRVDEKQASITVSVVSGEAWSGYGEYKGIASNYLAELQEGDTITCFISTPQSEFTLPKDPETPLIMVGPGTGVAPFRGFVQARKQLKEQGQSLGEAHLYFGCRSPHEDYLYQEELENAQSEGIITLHTAFSRMPNQPKTYVQHVMEQDGKKLIELLDQGAHFYICGDGSQMAPAVEATLMKSYADVHQVSEADARLWLQQLEEKGRYAKDVWAG
modifications: mutant P450 35-E11 protein sequence
B2: in series [3], the Km was found to be 1030 ± 57 µM and the kcat stood at 12.7 ± 0.867 s⁻¹. Besides, in series [4], the Km stood at 370 ± 33 µM and the kcat stood at 11.8 ± 1.15 s⁻¹. In series [1], the Km turned out to be 85 ± 25 µM and the kcat stood at 6.5 ± 1.58 s⁻¹. Besides, in series [2], the “% rel. act.” value is reported as 71.7% and the TTN is 4550 ± 350.
